Experimental findings from patent US20200239573A1 (CRESCENDO BIOLOGICS, published 2020) are described below.

What is called IC50 is the point on the concentration scale where inhibition reaches its midpoint. One may read the Kd as the concentration at which binding is half-saturated. The term koff denotes the rate constant with which the complex falls apart. A word on the kon: it is the rate constant with which the complex forms.

In assay [1] the target is T1, recombinant human PD-1 Fc chimera (human, UniProt Q15116 25-167).
T1 construct: Bought protein; also called human PD-1-huFc; huPD-1-Fc; not shown: human Fc
T1 sequence (Q15116 25-167 limits assumed, change not shown): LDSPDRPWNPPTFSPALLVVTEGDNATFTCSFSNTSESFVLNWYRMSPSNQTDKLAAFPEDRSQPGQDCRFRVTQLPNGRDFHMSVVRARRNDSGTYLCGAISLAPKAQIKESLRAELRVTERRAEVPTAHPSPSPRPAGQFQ
Nature of the assay: HTRF inhibition; strep-tagged PD-L1 vs PD-1-Fc. How it is done:
All samples and reagents were prepared in HTRF assay buffer containing PBS, 0.1% (w/v) BSA and 0.4M Potassium Fluoride. […] Total binding controls containing periplasmic extract sample buffer and non-specific binding controls containing excess untagged competitor were set up on each plate for data normalisation. Time-resolved fluorescent emission at 620 nm and 665 nm was measured following excitation at 337 nm on the BMG PHERAstar plate reader. Data was expressed as a % of the total binding control (% control) after subtraction of the background signal determined from the non-specific binding control wells.
A general note: TR-FRET usually uses a lanthanide donor and a delayed reading to cut background.

The target in assay [2] is T2, human PD-1 expressed on cells (CHO human PD-1 cells) (human, UniProt Q15116 21-288).
T2 construct: also called CHO TREX human PD-1 cell line; CHO PD-1
T2 sequence (Q15116 21-288): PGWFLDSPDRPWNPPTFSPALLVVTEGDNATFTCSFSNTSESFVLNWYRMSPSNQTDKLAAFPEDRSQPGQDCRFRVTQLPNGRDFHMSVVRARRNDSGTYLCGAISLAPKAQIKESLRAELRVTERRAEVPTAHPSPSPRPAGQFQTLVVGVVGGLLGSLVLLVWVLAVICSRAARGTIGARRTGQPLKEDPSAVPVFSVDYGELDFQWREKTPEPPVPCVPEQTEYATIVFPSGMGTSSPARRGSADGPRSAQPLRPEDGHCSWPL
Nature of the assay: FMAT epitope competition on CHO human PD-1 cells; competitor 1 nM 1.1-Strep. How it is done: For the epitope competition assay reagents were prepared in FMAT assay buffer. […] Plates were incubated for a minimum of 1.5 hours at room temperature then fluorescence measured in the FL2 (502 nm-537 nm) and FL5 (677-800 nm) channels on the Mirrorball plate reader (TTP) following excitation at 488 nm and 640 nm. Data was expressed as a % of the total binding control (i.e. % control) after subtraction of the background signal determined from the non-specific binding control wells.

Assay [3] has as its target T2, human PD-1 expressed on cells (CHO …). Nature of the assay: FMAT inhibition; 100 pM PD-L1-Fc on CHO human PD-1 cells. How it is done:
All reagents and serially diluted VH were prepared in FMAT assay buffer. […] Plates were incubated for 2 hours at room temperature then fluorescence measured in the FL2 (502 nm-537 nm) and FL5 (677-800 nm) channels on the Mirrorball plate reader (TTP) following excitation at 488 nm and 640 nm. Data was expressed as a % of the total binding control (i.e. % control) after subtraction of the background signal determined from the non-specific binding control wells.

For assay [4], the target named is T1, recombinant human PD-1 Fc chimera. Nature of the assay: SPR Biacore T200, PD-1-huFc amine-coupled, single cycle kinetics. How it is done:
Binding kinetics of certain VH single domain antibodies binding to human PD-1-huFc were measured by surface plasmon resonance (SPR) technology using Biacore T200 instrument (GE Healthcare). Recombinant human PD-1-huFc was immobilized by standard amine coupling to CM5 sensorschip (GE Healthcare) using in range of 0.1-0.01 mg/ml solution of antigen in 10 mM sodium acetate at pH 5.5. For the reference flow cell, a blank immobilisation was carried out. Single cycle kinetics assays were used to study the interaction, a five point, three-fold dilution series of each Humabody® was made with a top concentration of 30 nM. The binding kinetics were followed by flowing the Humabody® over the chip surface in HBS EP+ buffer at a flow rate of 30 μl/min. The contact time for each of the association steps was 180 seconds and the dissociation step was varied between 1200-3600 seconds. The data was fitted to a 1:1 binding model after double reference subtraction using the Biacore T200 Evaluation software.
Background: SPR reads the build-up and loss of mass on a sensor chip optically.

Assay [5] concerns the target T2, human PD-1 expressed on cells (CHO …). Put plainly: cell-based or functional assay.
Assay [6] deals with T3, Strep tagged recombinant human PD-1 (human, UniProt Q15116 25-170, limits assumed).
T3 construct: the whole entry is named; also called strep tagged human PD-1; not shown: Strep tag
T3 sequence (Q15116 25-170 limits assumed): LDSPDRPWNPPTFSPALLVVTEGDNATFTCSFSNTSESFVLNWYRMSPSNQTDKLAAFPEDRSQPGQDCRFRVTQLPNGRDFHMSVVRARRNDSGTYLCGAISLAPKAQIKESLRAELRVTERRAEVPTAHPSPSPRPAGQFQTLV
Nature of the assay: SPR Biacore T200, strep-tagged PD-1 amine-coupled, single cycle kinetics. How it is done: Single cycle kinetics assays were used to study the interaction between human PD-1 with Humabody® on a Biacore T200 instrument (GE Healthcare). Strep tagged recombinant human PD-1 was amine coupled to one flow cell of a CM-5 chip to create a low density surface (14 RU) using standard Biacore reagents. For the reference flow cell, a blank immobilisation was carried out. A five-point, three-fold dilution series of each Humabody® was made with a top concentration of 25 nM. The binding kinetics were followed by flowing the Humabody® over the chip surface in HBS EP+ buffer at a flow rate of 30 μl/min. The contact time for each of the association steps was 180 seconds and the dissociation step was 3300 seconds. The data was fitted to a 1:1 binding model after double reference subtraction using the Biacore T200 Evaluation software.

Numbering of substitutions follows the chain as printed. Where “and” joins values, the source holds several entries; their conditions need not be identical. Equal values may be shown once.

B1: Humabody® 1.3 (VHH)
VHH: QVQLVESGGGLVKPGGSLRLSCAASGFTFSDYTMTWMRQAPGKGLEWVSYISTGGSIKYYTDSVKGRFTISRDNAKNSLYLQMNSLRADDTAVYYCAREAPLRLGESPHDAFDIWGQGTMVTVSS
notes: human VH single domain antibody
In the case of B1, the half-maximal inhibitory concentration (IC50) in assay [1] stood at 2.3 nM.

B2: Humabody® 1.11 (VHH)
VHH: B1 VHH with Q1E, V5L, T33D, M37I, L45Q, T53R, I57T, T61A, D89E, S107T
notes: as for B1
For the molecule B2, in assay [1], the IC50 turned out to be 5.16 nM.

B3: Humabody® 1.95 (VHH)
VHH: B1 VHH with Q1E, Y32G, T33S, T53S, S56G, I57V, Y59F, T61A, D89E, W115S
notes: as for B1
Regarding B3, the figures for the 50% inhibitory concentration (IC50) in assay [2] and in assay [3] were 2 nM and 3.59 nM, respectively.

B4: Humabody® 1.51 (VHH)
VHH: B1 VHH with Y32S, T33S, T53S, S56A, I57V, Y59F
notes: as for B1
Molecule B4 returned a half-inhibitory concentration (IC50) in assay [2] of 4.7 nM. Moreover, in assay [4], the dissociation constant (Kd) came to 0.317 nM, the koff turned out to be 5.98e-05 s⁻¹ and the kon is 189000 M⁻¹ s⁻¹. Also, the “Reporter Assay EC50” value in assay [5] was 23 nM.

B5: Humabody® 1.14 (VHH)
VHH: B1 VHH with Q1E, K13Q, G16R, S56T
notes: as for B1
With B5, in assay [1], the IC50 worked out at 28.5 nM.

B6: Humabody® 1.43 (VHH)
VHH: B1 VHH with Y32S, T33S, T53S, S56G, I57V, K58I, Y59F, T61A
notes: as for B1
As for B6, the IC50 in assay [2] stood at 1.3 nM. In assay [4], the Kd stood at 0.0681 nM, the off-rate constant (koff) worked out at 2.79e-05 s⁻¹ and the kon amounted to 410000 M⁻¹ s⁻¹. Also, in assay [5], the “Reporter Assay EC50” value was found to be 12 nM.

B7: Humabody® 1.8 (VHH)
VHH: B1 VHH with Q1E, D89G
notes: as for B1
In the case of B7, the 50% inhibitory concentration (IC50) in assay [1] came out at 28.8 nM.

B8: Humabody® 1.59 (VHH)
VHH: B1 VHH with Y32N, T33S, T35S, T53S, I57V, Y59F, T61A
notes: as for B1
On to B8, for which the IC50 in assay [2] was determined as 7.8 nM. For the same molecule, in assay [5], the “Reporter Assay EC50” value was 24 nM.

B9: Humabody® 1.44 (VHH)
VHH: B1 VHH with Y32N, T33S, T53S, S56A, I57V, Y59F, T61A
notes: as for B1
Take B9: the half-maximal inhibitory concentration (IC50) in assay [2] was 1.9 nM. Besides, in assay [4], the equilibrium dissociation constant (Kd) is 0.2 nM and 0.17 nM; the off-rate constant (koff) is 4.18e-05 s⁻¹ and 4e-05 s⁻¹; the on-rate (kon) was 209000 M⁻¹ s⁻¹ and 235000 M⁻¹ s⁻¹. The “Reporter Assay EC50” value in assay [5] worked out at 41 nM.

B10: Humabody® 1.99 (VHH)
VHH: B1 VHH with Q1E, Y32R, T33S, T53S, S56G, I57V, Y59F, T61A, D89E, W115S
notes: as for B1
Consider B10, for which the figures for the IC50 in assay [2] and in assay [3] were 1.4 nM and 1.86 nM, respectively. Moreover, in assay [5], the “Reporter Assay EC50” value came out at 4.2 nM.

B11: Humabody® 1.96 (VHH)
VHH: B1 VHH with Q1E, Y32T, T33S, T53S, S56G, I57V, Y59F, T61A, D89E, W115S
notes: as for B1
Turning to B11, in assay [6], the Kd was determined as 0.08 nM, the off-rate (koff) amounted to 0.00012 s⁻¹ and the kon was 1.52e+06 M⁻¹ s⁻¹. The same molecule came in with an IC50 in assay [2] of 1.6 nM. The midpoint of inhibition in assay [3], the IC50, lay at 2.45 nM.

B12: Humabody® 1.42 (VHH)
VHH: B1 VHH with Y32N, T33S, T53S, S56G, I57V, Y59F, T61A
notes: as for B1
B12 displayed a 50% inhibitory concentration (IC50) in assay [2] of 3.5 nM. For the same molecule, in assay [4], the dissociation constant Kd was determined as 0.0505 nM, the koff turned out to be 2.69e-05 s⁻¹ and the kon amounted to 532000 M⁻¹ s⁻¹. In addition, the “Reporter Assay EC50” value in assay [5] amounted to 8.6 nM.

B13: Humabody® 1.80 (VHH)
VHH: B1 VHH with Q1E, Y32S, T33S, T53S, S56G, I57V, Y59F, T61A, D89E, W115S
notes: as for B1
Regarding B13, in assay [6], the Kd turned out to be 0.0297 nM, the koff is 5.2e-05 s⁻¹ and the kon worked out at 1.76e+06 M⁻¹ s⁻¹. In addition, the IC50 in assay [3] came to 1.82 nM.

B14: Humabody® 1.93 (VHH)
VHH: B1 VHH with Q1E, Y32A, T33S, T53S, S56G, I57V, Y59F, T61A, D89E, W115S
notes: as for B1
As for B14, the results for the half-maximal inhibitory concentration (IC50) in assay [2] and in assay [3] were 1.5 nM and 2.12 nM, respectively.

B15: Humabody® 1.89 (VHH)
VHH: B1 VHH with Q1E, T33S, T53S, S56G, I57V, Y59F, T61A, D89E, W115S
notes: as for B1
Turning to B15, in assay [6], the Kd turned out to be 0.0342 nM, the koff came out at 5.6e-05 s⁻¹ and the on-rate constant (kon) was determined as 1.6e+06 M⁻¹ s⁻¹. This molecule registered an IC50 in assay [2] of 2.4 nM. Also, in assay [5], the “Reporter Assay EC50” value was 19 nM.

B16: Humabody® 1.97 (VHH)
VHH: B1 VHH with Q1E, Y32I, T33S, T53S, S56G, I57V, Y59F, T61A, D89E, W115S
notes: as for B1
In the case of B16, the figures for the concentration for half-maximal inhibition (IC50) in assay [2] and in assay [3] were 1.7 nM and 3.32 nM, respectively.

B17: Humabody® 1.90 (VHH)
VHH: B1 VHH with Q1E, Y32V, T33S, T53S, S56G, I57V, Y59F, T61A, D89E, W115S
notes: as for B1
Take B17: the IC50 came to 1.6 nM in assay [2] and 3 nM in assay [3].

B18: Humabody® 1.7 (VHH)
VHH: B1 VHH with Q1E, S56T
notes: as for B1
As for B18, in assay [1], the IC50 worked out at 4.4 nM.

B19: Humabody® 1.91 (VHH)
VHH: B1 VHH with Q1E, Y32Q, T33S, T53S, S56G, I57V, Y59F, T61A, D89E, W115S
notes: as for B1
B19: the IC50 was found to be 1.4 nM in assay [2] and 3.56 nM in assay [3].

B20: Humabody® 1.98 (VHH)
VHH: B1 VHH with Q1E, Y32K, T33S, T53S, S56G, I57V, Y59F, T61A, D89E, W115S
notes: as for B1
Consider B20, for which the concentration for half-maximal inhibition (IC50) in assay [2] was 1.1 nM; in assay [3], 2.08 nM. The “Reporter Assay EC50” value in assay [5] stood at 6.5 nM.

B21: Humabody® 1.6 (VHH)
VHH: B1 VHH with Q1E, V5L, S56T, N84S
notes: as for B1
On to B21, for which, in assay [1], the half-maximal inhibitory concentration (IC50) was found to be 13.1 nM.

B22: Humabody® 1.58 (VHH)
VHH: B1 VHH with Y32N, S56G, I57V, Y59F, T61A
notes: as for B1
The molecule B22 displayed a half-inhibitory concentration (IC50) in assay [2] of 4.6 nM. The “Reporter Assay EC50” value in assay [5] amounted to 7.1 nM.

B23: Humabody® 1.53 (VHH)
VHH: B1 VHH with Y32N, T33S, T53S, I57V, Y59F, T61A
notes: as for B1
Take B23: the IC50 in assay [2] came to 5.4 nM. In addition, the “Reporter Assay EC50” value in assay [5] was 14 nM.

B24: Humabody® 1.100 (VHH)
VHH: B1 VHH with Q1E, Y32L, T33S, T53S, S56G, I57V, Y59F, T61A, D89E, W115S
notes: as for B1
As to B24, the concentration for half-maximal inhibition (IC50) amounted to 1.5 nM in assay [2] and 2.61 nM in assay [3].

B25: Humabody® 1.10 (VHH)
VHH: B1 VHH with T35S, V48I, T53L, S56N, I57T
notes: as for B1
Take B25: the IC50 in assay [1] stood at 54.1 nM.

B26: Humabody® 1.12 (VHH)
VHH: EVQLLESGGGVVKPGGSLRLSCAASGFTFSDYYMGWIRQAPGKGLEWISYISSSGSTIYYADSVKGRFTISRDNAKNSLYLQMNSLRAEDTAVYYCAREAPLRLGESPHDAFDIWGQGTMVTVSS
notes: as for B1
B26: in assay [1], the 50% inhibitory concentration (IC50) was found to be 4.18 nM.

B27: Humabody® 1.15 (VHH)
VHH: B26 VHH with E1Q, L5V, V11L, Y32N, Y33S, G35S, I48V, S85T, R98K
notes: as for B1
Regarding B27, the 50% inhibitory concentration (IC50) in assay [1] is 3.78 nM.
